In publication doi:10.1101/323444 one finds stoichiometry N (CckA per complex) data, which are given here for four substances.

Common to all, as to assay: SEC
Assay [1] deals with CckA ΔPAS-A (Caulobacter crescentus).
In assay [2] the target is CckA ΔPAS-A-B ΔRD (Caulobacter crescentus).
For assay [3], the target named is CckA (WT, N-terminal His-tag in place of its transmembrane helices) (Caulobacter crescentus) (UniProt Q9X688).
Assay [4] has as its target CckA ΔPAS-A ΔRD (Caulobacter crescentus).

CckA ΔPAS-A (domain or fragment) registered a stoichiometry N (CckA per complex) in assay [1] of 3.1.

In assay [2], CckA ΔPAS-A-B ΔRD (domain or fragment) had a stoichiometry N (CckA per complex) of 2. In assay [3], “CckA (WT, N-terminal His-tag in place of its transmembrane helices) (from UniProt Q9X688 1-691) (enzyme)” displayed a stoichiometry N (CckA per complex) of 4. CckA ΔPAS-A ΔRD (domain or fragment) registered a stoichiometry N (CckA per complex) in assay [4] of 2.
